Reference: patent US20030165841, “Use of phosphorothiolate polynucleotides in ligating nucleic acids” (published 2003)

T1: Topo65 (human topoisomerase I fragment, residues 215-765) (Homo sapiens, UniProt P11387 SEQ:22-572)
T1 chain: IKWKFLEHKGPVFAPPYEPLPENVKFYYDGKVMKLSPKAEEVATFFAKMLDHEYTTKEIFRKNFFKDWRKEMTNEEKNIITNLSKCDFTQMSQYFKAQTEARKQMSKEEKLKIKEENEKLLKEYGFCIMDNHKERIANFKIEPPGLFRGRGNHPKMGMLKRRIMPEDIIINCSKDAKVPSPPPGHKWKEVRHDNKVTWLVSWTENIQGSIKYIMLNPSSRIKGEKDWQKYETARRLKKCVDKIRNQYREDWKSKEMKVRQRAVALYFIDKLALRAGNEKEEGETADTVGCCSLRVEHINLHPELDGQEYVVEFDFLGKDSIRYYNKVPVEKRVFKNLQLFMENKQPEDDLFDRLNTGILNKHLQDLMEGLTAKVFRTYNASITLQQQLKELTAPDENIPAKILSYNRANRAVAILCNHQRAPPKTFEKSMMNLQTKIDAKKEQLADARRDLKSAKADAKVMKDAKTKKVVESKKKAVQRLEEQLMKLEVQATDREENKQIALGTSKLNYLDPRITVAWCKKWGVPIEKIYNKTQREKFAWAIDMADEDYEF


Key:
[1] = target: T1, Topo65 (human topoisomerase I fragment, …); experiment: no gel shift with single strand alone
Procedure: (§1) The duplex substrates shown in FIGS. 3A and 3B were reacted overnight at room temperature with Topo65. The reaction mixtures contained 3 μM Topo65, 10 μM duplex substrate, 10 mM Tris-HCl, pH 7.5, 100 mM KCl, 10 mM MgCl2, 1 mM EDTA, and 2 mM DTT. The reaction products were adjusted to 1 M NaCl or NOT and then analyzed by 10% SDS-PAGE and Coomassie Blue staining (lanes 4-7). FIG. 4 is a photograph of the stained gel.
This experiment was repeated after removal of the DMT from the AS oligonucleotides by acid treatment, and an identical gel-shift was observed on reaction of “DMT off” oligonucleotide complexes with Topo65. However, no gel shift was observed if duplex generated from ratios of single strand oligonucleotides alone, for example, TCRIBamS, TCRIBamAS, TCRIBstBS or TCRIBstBAS alone.

[2] = target: T1, Topo65 (human topoisomerase I fragment, …); experiment: covalent complex by SDS-PAGE shift; enzyme reacts quantitatively
Procedure: as §1
As a control, Topo65 was allowed to react with a duplex 22-mer suicide substrate. The suicide substrate contains a centrally positioned 5′-bridging phosphorothiolate.

Binder | binding result [1] | binding result [2]
AATTCGCGGCCGCAAAAAGACTTGATC (ssDNA, 5'-bridging phosphorothiolate 4 bases from 3' end) [TCRIBamS alone] | no binding | 
GATCAAGTCTTTTTGCGGCCGCG (ssDNA) [TCRIBamAS alone] | no binding | 
CGAAGTCTTTTTGCGGCCGCG (ssDNA) [TCRIBstBAS alone] | no binding | 
AATTCGCGGCCGCAAAAAGACTTCG (ssDNA, 5'-bridging phosphorothiolate 2 bases from 3' end) [TCRIBstBS alone] | no binding | 
suicide 22-mer duplex (dsDNA, 5'-bridging phosphorothiolate between GACTT and AGAAAA of top strand) DNA 1: AAAAAGACTTAGAAAAATTTTT DNA 2: AAAAATTTTTCTAAGTCTTTTT |  | binds
